For the assay, the target named is T1, γ^S3C subunit of BF1 (Bacillus subtilis, UniProt P37810 1-287, S3C).
T1 construct: F1-ATPase γ subunit, Bacillus subtilis, with γSer3 to Cys; Stood in the assay as a subunit of the α3β3γ^S3C complex, never isolated alone; source: E. coli BL21(DE3), co-expressed with α and His6-β, purified as part of the α3β3γ^S3C complex
In words: cross-linking; disulfide cross-linking without ATP: α3β3γ^S3C and ε^133C mixed 1:10, excess ε removed by ultrafiltration (100-kDa cutoff), 50 µM CuCl2, 1 h, 25 °C, 50 mM Tris-H2SO4 pH 7.5, 50 mM K2SO4; non-reducing SDS-PAGE. Conditions: both partners purified.

B1: mutant BF1 ε subunit (133C, a Cys introduced at the C-terminus) (natural protein, Bacillus subtilis, UniProt P37812 1-132, looked up)
chain: MKTVKVNIVTPDGPVYDADIEMVSVRAESGDLGILPGHIPTVAPLKIGAVRLKKDGQTEMVAVSGGFVEVRPDHVTILAQAAETAEGIDKERAEAARQRAQERLNSQSDDTDIRRAELALQRALNRLDVAGKC
With B1, the binding result was “binds”.

For the origin of these results see article PMC3742539, “ε Subunit of Bacillus subtilis F1-ATPase Relieves MgADP Inhibition” (PLoS ONE, 2013).
